This is an account of results in paper PMC8142254, “The mycobacterial proteasomal ATPase Mpa forms a gapped ring to engage the 20S proteasome” (The Journal of Biological Chemistry, 2021).

For data set [1], the target named is Mycobacterium tuberculosis proteasomal ATPase Mpa, full-length (1–609) (Mycobacterium tuberculosis) (UniProt P9WQN5). Nature of the data set: not stated; stoichiometry of the in vitro assembled Pup–FabD:Mpa complex; how it was found is not told.
The data set “cryo-EM structure” concerns the molecule itself. Nature of the data set: cryo-EM structure.

What is called stoichiometry N is the number of molecules, sites or subunits per partner or assembly.

For the molecule “Pup–FabD (Pup translationally fused to the N terminus of malonyl CoA-acyl carrier protein transacylase)”, in data set [1], the stoichiometry N (Pup–FabD per Mpa hexamer) came to 1.

B1: Mycobacterium tuberculosis proteasomal ATPase Mpa, full-length (1–609) (enzyme)
chain: MGESERSEAFGIPRDSPLSSGDAAELEQLRREAAVLREQLENAVGSHAPTRSARDIHQLEARIDSLAARNSKLMETLKEARQQLLALREEVDRLGQPPSGYGVLLATHDDDTVDVFTSGRKMRLTCSPNIDAASLKKGQTVRLNEALTVVEAGTFEAVGEISTLREILADGHRALVVGHADEERVVWLADPLIAEDLPDGLPEALNDDTRPRKLRPGDSLLVDTKAGYAFERIPKAEVEDLVLEEVPDVSYADIGGLSRQIEQIRDAVELPFLHKELYREYSLRPPKGVLLYGPPGCGKTLIAKAVANSLAKKMAEVRGDDAHEAKSYFLNIKGPELLNKFVGETERHIRLIFQRAREKASEGTPVIVFFDEMDSIFRTRGTGVSSDVETTVVPQLLSEIDGVEGLENVIVIGASNREDMIDPAILRPGRLDVKIKIERPDAEAAQDIYSKYLTEFLPVHADDLAEFDGDRSACIKAMIEKVVDRMYAEIDDNRFLEVTYANGDKEVMYFKDFNSGAMIQNVVDRAKKNAIKSVLETGQPGLRIQHLLDSIVDEFAENEDLPNTTNPDDWARISGKKGERIVYIRTLVTGKSSSASRAIDTESNLGQYL
notes: Mpa (mycobacterial proteasome ATPase), Mycobacterium tuberculosis, full-length, residues 1-609; Homohexamer; In the cryo-EM model the coiled-coil domains and two of the six AAA domains are not resolved; also called mycobacterial proteasome ATPase; WT Mpa
With B1, the “stoichiometry N” value in “cryo-EM structure” turned out to be 6.
